Paper doi:10.1101/2022.02.05.479199
Where a chain is given by its changes, count along the chain named. Blank lines part the entries; values can stand above or below the binder they belong to.

Tests used:
[1] = biological target: RPA-DBD-A^Cy3 (S. cerevisiae) (UniProt P22336); assay: FRET or BRET
[2] = biological target: RPA-DBD-D^Cy3 (S. cerevisiae) (UniProt P22336); assay: FRET or BRET
[3] = biological target: RPA-DBD-D^MB543 (S. cerevisiae) (UniProt P22336); assay: C-trap optical tweezers with confocal fluorescence
[4] = biological target: F-A-B-DBD-A^MB543 (S. cerevisiae); assay: other fluorescence titration
[5] = biological target: RPA-DBD-A^MB543 (S. cerevisiae) (UniProt P22336); assay: other fluorescence titration

kobs (single exponential model) [1]: 0.62 s⁻¹ | kobs (single-step model) [1]: 0.2 s⁻¹ | kobs,1 (two-step model) [2]: 3.5 s⁻¹ | kobs,2 (two-step model) [2]: 0.2 s⁻¹ | t1/2 of dissociation [3]: 5 s
B1: Rtt105^Cy5 (natural protein)
chain: MYSNHNLNSDDCSFDWNEEKAAELQRTGVSFDRSLTPQSLRTSTRRLSEENKQQSGTMHIDTSPSVVSDIISSRRDRSQDFFGPHSSSPIAPSERQRADQRSRLESMRLTRRRDKMTKVRGGLEKMEEMIMQGEHLREMQRLKQEAQKNALPSDMAEYMEWQNNEDLEDDELLAFIEKQETYKNELEHFLNNANKNVYENNSYPNSHT
modifications: Cy5 (maleimide) on Cys-12

Kd [4]: 33.9 nM | Kd [5]: 61.1 nM
B2: Regulator of Ty1 Transposition 105 (Rtt105) (natural protein)
chain: B1 chain with S13C
